Laboratory results reported in the domain aggregation screens of Martell et al. (2025).

Test: soluble fraction after stress (log2 fold change); higher = more stays soluble; pooled small domains, quantitative proteomics
Conditions: stress: 50 degC
Outline: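 Custom libraries of small protein domains were pooled and measured in a high-throughput format, with quantitative proteomics as the read-out. Each library was stressed at 50°C. The value is the log2 fold change in the amount of each protein that stays soluble after stress, used as a measure of aggregation propensity; higher values mean more of the protein stays soluble.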

Point of comparison: “HMEEEVKVPKIKGLTEAEAKAKLKSEGLESGTARSAYSDTVEEGHIISQSIQEGTKVPKGTAVSYEVSKGK”, “soluble fraction (log2)” value 0.17. Against it:
- HMKNVEEMILGKLKRKVSENLENASFEEIILVDAEKSVYKGIIKANYIEYYFRVNLSTGEVLSWKLK — lower, -0.373
- HMETPDLTQLNPILDEYRGQKGAVIPVLQKAQKIYGFLPPEVLRRIAAGMRVPLSKIYGVATFYSQFY — within 0.2 log units, 0.0579
- HMRRSKVMLESILDEIPQMGQARRAALLEQFGSVAALRKASLAEIAMTPGIGEKIAVIIFEYLQKSSH — lower, -1.17
- HMQQDVLKLKSGGNYKGEYINIESAYVLFKPEGGNATQRIKVNEIQMLKLADGTEVIFGGRVK — within 0.2 log units, 0.0478
- HMEKTEQMQVILDYIARYGEINNEKVQEILGVKRTRAYTILKQMVENGFVTTNGRGEEKKYYSIR — lower, -0.336
- HMFELDELDLVILKNLANGLSKKQIRVKLKKMDLRPNSESAIDKRVSKLFDEFGAKNSTELVAKLIREGL — lower, -2.55
- HMKKTVTDSVELLTFLKDIFTNTSTNKLRKMLTTGRVTVNNIVIHKAKHILVQNDVVEIGDK — lower, -1.86
- HMRTEGNLGAKVRVLRRSQGMTQAELARRLGISPSYLNLIEHNRRSFTADLLVKLAKILPVNLKT — lower, -1.36
- HMPEVAHTIDMEAVNKHWDELPEREQRILVMRFYGNLTQTEIGERLGISQMHVSRLLARALSHLKSRLLD — lower, -3.37
- HMGGKWKAIIIYHLKNGPKRFGELRRALISSTETVLSNQLKQLEQDGLVSRQVFGTKPPLKTVYSLTDFG — lower, -3.06
- HMKETLSINSTDFEVRRSSRRKRISVGFDTGTETFFIAAPTKLAGTDILRILGPQISRLMDRLT — lower, -1.95
- HMSNKYYETILDWFKSQIMSGELKEGDTIPSERELATRFGVSRVPVREALRILEYIGIVSNTADGMTVQKV — lower, -0.879
- HMEPELSVDMKPLDGLLLAIKKELQAAQMYTRLARASADAEQKMVFEQLANMEKGHKARLEDIYT — within 0.2 log units, -0.0279
- HMVSINETAFIQIKNSSATEIKEKITALKLDELKNVTITADIRTNKLIVVGPKATINKIQELVIELDTES — within 0.2 log units, 0.281
- HMEYDYKVIDFFKDYYSYLNYQEIEPNILDKQLTTLTEEESAKIAGIMKLDYEDFTRGIEIVTGS — lower, -0.195
- HMAPGVHVEALLPYTAGSLVSQIREYGNVDAVEYRDTGILLQADVDERLAAQIMDQALEDPV — within 0.2 log units, 0.0408
- HMLKLSGEESQQLALRLREELARRRITRQGLADAAKISISTLEQVLAGRRTFTLATIVRLEEGLGIKLL — lower, -1.89
- HMLENSLDHIEGIGPKTKDTLLTYFKSVSKIKSANPSILAELIGAAKTKILLAAFEKEKTTS — within 0.2 log units, -0.017
- HMSQDPLETYYPQWSAAVKQSNPDAEIIRDTDGKYYVEGMTKNRVAVIYENPHLVRLVNATTNVHVE — within 0.2 log units, 0.0542
- HMKINVQETEVYRYLLERADRLYSMILGEERENLMERTRFFEKEVAKASLPHLPKLYDEFSIYLDRLERG — lower, -0.138
- HMEPTLVVARDKDAKSPLVAKLMKELGVDAAPRVIVDDSVIGGAKLSHNHTEIDATYKTALINLYQAIT — within 0.2 log units, 0.126
- HMAEAPGSVELLAERLRPWWEIHGGEWGSKTKALRFLFGDQAPVAGSYWRALEAAIAQIESTT — lower, -0.16
- HMRMDKHLWLSLLRLINEGSAEELQTKKDELLQSLERLRITRGPVRGDVLRVVRLIDEELVSRLHLDQR — lower, -2.29
- HMAQSTALVNLAQAEINKRGLTQTEVQARLSEEGINVNSISPAEYPKYQKQILSILDQMQKEKQLSKEV — higher, 0.412
- HMSYKFDSLAIILNKLDGKETVNVSSLSDELEVSARTVHRYIGTLQVAGFPIEYDKTKNSYIFSEGYTL — lower, -0.874
- HMDSNFNYELVGFRLDDMGLNSSVIVKRNNQEFVIQKGDLLENKYLLNSVTKKNINFSYLGKNYQI — lower, -0.789
- HMSGAQIQQLLESRAPQPGMNPDMIVRRKTYMNNVFNALKGALLRVANGSSPEEVKTEVDAAIQVDPDKL — within 0.2 log units, 0.0889
- HMRGPPQVLVDVELEDGRVGQIGVRNGDDATELAETFVRAFRLEQSFVGRLANVIQGKIRELLHSQ — lower, -0.889
- HMNFAERIKELRKEKGITQIDLAEAVGLSKGTVAMWEVDKREANFDTLNKLSDYFQVSIDYLLGRSNDRS — within 0.2 log units, 0.0272
- HMVVADFQNYTVKPKENLYSLTKTSGLSQEELVALNPELKNGVQEGMVIKLPAAVKLMAQPE — within 0.2 log units, 0.15
- HMEDVTLSLVVGEDLDGERLDVFLTWKLDRTRSQVQALIRDGKVRLEQGQRARPSMVVRSGMGISVSLEPR — lower, -1.49
- HMSVFTPLTRSELETFLAPYELGRLLDFQGIAAGSENTNYFISLEKGEYVLTLVERGPVAEMPFFIELLD — lower, -0.982
- HMDEWKRKELWDAIARLPKIQRMVVTMRTTENLPYKEIAKIMNISENSAKVNYHHAVEALKIFF — lower, -2.66
- HMQISDDSELIKIVDNILANSQKQIDDYHNGKTNLFGFFVGQVMKETKGKANPVKVNEILKDKL — within 0.2 log units, 0.00641
- HMRDSYEVEGRIASVSPAAGTFVVAGVTVDYTGARFVGGTVAQLAPGVKVEVEGRRLANGTLQAREIEFD — within 0.2 log units, 0.00935
- HMSNWYGTVVKIQPRPNAQAADTAVVKLLDGSEHRFPVWADHLTTIEVGSRLKKLSGGWDPVLMDPEETF — lower, -0.454
- HMQTMTAGERREAILRELEQAQGPVSASALAKRFHVSRQAVVGDVAMLRALNSPIAATPRGYVLTR — lower, -0.0845
- HMPSSFLVKVTADALNIRSGPGVANRITGTIKDKGTYTIVDTKDDWGKLKSGVGWIHLGYTKRLD — lower, -0.33
- HMGGKWKPIILYYININSVARYSELKRFIPSINERMLTRQLRELEEDNLIERKVYPIVPPKVEYRLTEYGK — within 0.2 log units, 0.0177
- HMTTKEEAAYQAIRSAIIDGELKPGQSVTIRDLASRFDLGRTPITDAMKHLALDGWLETTTGVGTRV — lower, -0.106
- HMSSHNIALDQDVVVTQLKGKVYLVAADGSQKQLAEGDILPKDAVLITPEGASFKGGNQTFTLS — the same, 0.17
- HMDLGEQIIEKLRAAGGFLAITDKSPAEEIYELFATSKKNYKKAVGGLYKKGLLVIEDDGIRLTPAGR — lower, -0.102
- HMAGTPAIVKWFNPTKGFGFVTPKEAGSDALLHASVLAKRGKRWLQEGTLVEVLIEEGPKGLVVSELLTIE — lower, -0.748
- HMDGVNRDKIEYRLDDLYYLKGSDAPYTGKVFEEWSGQQRVETNYIDGKLDGLSESWHENGQKASEVNY — within 0.2 log units, 0.345
- HMLLSTHVVVAKEDVQIGTRLQPAMLQVVDWPSASPLKNPLTSIEQATDRVVNMPLVKGEPISMSKLAAKG — within 0.2 log units, 0.00241
- HMTFGENLIRLRRQQGLSQEQLGMRIGVSRQTVSKWELNDTTPEMEKLIALADLFGLSLDELTGRV — lower, -0.115
- HMNSVSARRSAAITAISTGRIHSQEDLVQALKKAGYPVTQATASRDIEEIGAVRIRNQKGEMVYAIS — within 0.2 log units, 0.264
- HMKQPVPDEIYFKRLANATEALGRYPRASERKKFGLNMSKRRYPTLTDFINKAIELGYVEDFR — lower, -0.373
- HMSKETTYEVLSLKGDEWQTDTIYSDRDEAIEAARNLHGDPHIDGAKVISEVYDDKTGGSKETTIFNT — within 0.2 log units, 0.226
- HMVEIPEFKITTFVNTDNEQIAEFENGFTDKKAEITFNNTKYVFKEKLPDQDGIRTYVYEELHE — within 0.2 log units, 0.117
- HMTKGDRIKARREELGLTQTDLAEAISSTKQNIYKYENNIISNIPSDKVEAIAEVLKISPAYLMGWGDE — within 0.2 log units, 0.0302
- HMFDLKKIYGTILDETKSSLLLSTDDGREVQIIKTDGTEVLASGLGVYVEVAYRDETPDGYPIALTI — lower, -0.193
- HMNQKTQMTKQILAESLKKLMLHHSFEKITIKDITDAAGFIRPTFYNHFKDKYDLVEWIFTEEI — lower, -0.364
- HMFSIDRNIRRLRKEAGLTQEELAQKLFVTRQTISLWELGKVHPDLETLQKLAEQFQVDLLQVLYGPE — lower, -2.17
- HMSVLEHVSGNVRRLRLQAGLSQEALARAASVSRRMLVGIESGDVNVSLSTLDRIAAALGVLFPDLVQAP — lower, -1.52
- HMARKTIFHSLLGELEQRIGRLPAGTILPAEQALADEYGVSKPTLRRALAELAEHGLITKENGIGSVVI — lower, -0.45
- HMSKNYYEILGVTPDVELSQLKAVYRRLVRKYHPDINPDGELIFKDITEAYEVLSDEKQRKQYDMINGF — within 0.2 log units, -0.0246
- HMAPRASDALTERELDVLRVVADGASVAEAAEMLVVSRETVKKHLGNIYAKLGVHSKMQAVALLREEGV — lower, -0.147
- HMGDSVLNDKLNTLAGLDEERFKWVLASLNPNNSYSTHSDKMSALMWLVSYFNDEADLKETVPPLPI — lower, -0.0724
- HMSEYIFGKNVVKEAFNNPSRIEEIYVLDKNMEFVSLAKKYHIKYTVITSSEMNKMVSGNHQGVVALVK — lower, -0.277
- HMRKIFPFNPNFITDQRGYFLGMSTSEIDRLHHFRAANKWIQSAQEFQVVTKVSNAWLSEFSPYFNFP — lower, -3.39
- HMGMETQLSPKEKSIYTIIQNRPNIQSGEVSEKLAIPLPTVKRILSDLINKGLIEKQGSGRNVSYTI — within 0.2 log units, 0.254
- HMNKEKLLEMFESMSIIIVQSLEEKEQTEDRIETELFNEAKTPRYSTLTKQDIQSVIRNILITVGV — lower, -1.84
- HMKNTADRVYENLFHMLVSGDYAPGDRIPSEHELKERFNVSRNTIRAALNRMNALGIIETRQGDGTYLKG — lower, -0.243
- HMTKQEYLNQLKNELVKQGVADAEDVVTEYEQHFAFKLADGFGEEEIAKKLGDPAAIASQFVG — within 0.2 log units, 0.293
- HMPKAMAIMSEIAGTVHIDDTKKSRHVEVTGVDDNGAPVTKSYLIPFGHRLKVMEGDVLVKGALLT — lower, -0.0964
- HMSTIKEKIIQYLDFKGISKYDFYQKTGVSNGVLSQKSGMSEDNIMRFLSYYDDINTDWLFYGKGEMIKT — lower, -1.13
- HMINIGANIRAIRKQKNIKQVDLVRLLQLEGVEITRETLVKIESGVQHIKASQLRGIRDALGTTYDELL — lower, -2.95
- HMAVEETFTITWLDRDGTVLEVDENVLKGTMPSFDGHIPPHDGLEFKGWDPEVVPVEGDATYTATYKA — lower, -0.176
- HMIELEGVISSVLAGTMFKVKLRGNGHEVLAHISGKMRKKFIRLVIGDAVKIEMSPYDMDKARIVYRI — within 0.2 log units, -0.00875
- HMKLIRLGKAAGELNVGMSTLAEFLQSKGHSVDPNPNTKLTPEQYALLRMEFAADQTLKKLTKQP — within 0.2 log units, 0.198
- HMKELASKYEISEYMKFLIENLDKSNFFYPIEKRESMINNIFSIYSKADLSKKELNMLWGMLKKLR — lower, -2.1
- HMRDPVDKDNYLGDWDKNKTYPAGYVMTFGDKNYLALQEVPAGTKPGATDPDPFWVLDTGKTLKD — lower, -0.0888
- HMGAVPKNYFPAVEKGLQDSVQKGLLAGYPVVGVKAILYDGSYHPVDSSEMAFKTATIQAFKKGFMEA — within 0.2 log units, 0.2
